Our source for the kcat/Km, Km and kcat values is ChEMBL document CHEMBL1212722, “Designer enzymes for glycosphingolipid synthesis by directed evolution” (Nat Chem Biol, 2009).

Substitutions are numbered along the chain they refer to. In names and notes the source's numbering stands.

The kcat/Km is the second-order rate constant that governs catalysis at low substrate concentration. Usually Km stands for the substrate concentration at which the rate is half of its maximum. Usually kcat stands for the number of substrate molecules converted per active site and unit of time at saturation.

Substrate in series [1]: CC(=O)N[C@H]1[C@H](O[C@@H]2[C@H](O[C@]3(C(=O)O)C[C@H](O)[C@@H](NC(C)=O)[C@H]([C@@H](O)[C@@H](O)CO)O3)[C@@H](O)[C@H](O[C@H]3[C@H](O)[C@@H](O)[C@@H](F)O[C@@H]3CO)O[C@@H]2CO)O[C@H](CO)[C@H](O)[C@@H]1O[C@@H]1O[C@H](CO)[C@H](O)[C@H](O)[C@H]1O
The series is described as follows: (§1) Ratio of Kcat to Km of Activity of Rhodococcus sp. M777 Endoglycoceramidase 2 P394S mutant.

Substrate in series [2]: CCCCCCCCCCCCC/C=C/[C@@H](O)[C@@H](N)CO
The description is as §1.

Substrate in series [3]: CC(=O)N[C@H]1[C@H](O[C@@H]2[C@H](O[C@]3(C(=O)O)C[C@H](O)[C@@H](NC(C)=O)[C@H]([C@@H](O)[C@@H](O)CO)O3)[C@@H](O)[C@H](O[C@H]3[C@H](O)[C@@H](O)[C@@H](F)O[C@@H]3CO)O[C@@H]2CO)O[C@H](CO)[C@H](O)[C@@H]1O[C@@H]1O[C@H](CO)[C@H](O)[C@H](O)[C@H]1O
In words: (§2) Activity of Rhodococcus sp. M777 Endoglycoceramidase 2 P394S mutant.

Substrate in series [4]: CCCCCCCCCCCCC/C=C/[C@@H](O)[C@@H](N)CO
Described as §2.

Substrate in series [5]: CC(=O)N[C@H]1[C@H](O[C@@H]2[C@H](O[C@]3(C(=O)O)C[C@H](O)[C@@H](NC(C)=O)[C@H]([C@@H](O)[C@@H](O)CO)O3)[C@@H](O)[C@H](O[C@H]3[C@H](O)[C@@H](O)[C@@H](F)O[C@@H]3CO)O[C@@H]2CO)O[C@H](CO)[C@H](O)[C@@H]1O[C@@H]1O[C@H](CO)[C@H](O)[C@H](O)[C@H]1O
In words: (§3) Activity of Rhodococcus sp. M777 Endoglycoceramidase 2 A81E mutant.

Substrate in series [6]: CCCCCCCCCCCCC/C=C/[C@@H](O)[C@@H](N)CO
Described as §3.

Substrate in series [7]: CC(=O)N[C@H]1[C@H](O[C@@H]2[C@H](O[C@]3(C(=O)O)C[C@H](O)[C@@H](NC(C)=O)[C@H]([C@@H](O)[C@@H](O)CO)O3)[C@@H](O)[C@H](O[C@H]3[C@H](O)[C@@H](O)[C@@H](F)O[C@@H]3CO)O[C@@H]2CO)O[C@H](CO)[C@H](O)[C@@H]1O[C@@H]1O[C@H](CO)[C@H](O)[C@H](O)[C@H]1O
The series is described as follows: (§4) Ratio of Kcat to Km of Activity of Rhodococcus sp. M777 Endoglycoceramidase 2 A81E mutant.

Substrate in series [8]: CCCCCCCCCCCCC/C=C/[C@@H](O)[C@@H](N)CO
Described as §4.

Substrate in series [9]: CC(=O)N[C@H]1[C@H](O[C@@H]2[C@H](O[C@]3(C(=O)O)C[C@H](O)[C@@H](NC(C)=O)[C@H]([C@@H](O)[C@@H](O)CO)O3)[C@@H](O)[C@H](O[C@H]3[C@H](O)[C@@H](O)[C@@H](F)O[C@@H]3CO)O[C@@H]2CO)O[C@H](CO)[C@H](O)[C@@H]1O[C@@H]1O[C@H](CO)[C@H](O)[C@H](O)[C@H]1O
The series is described as follows: (§5) Ratio of Kcat to Km of Activity of Rhodococcus sp. M777 Endoglycoceramidase 2 G370E mutant.

Substrate in series [10]: CCCCCCCCCCCCC/C=C/[C@@H](O)[C@@H](N)CO
Described as §5.

Substrate in series [11]: CC(=O)N[C@H]1[C@H](O[C@@H]2[C@H](O[C@]3(C(=O)O)C[C@H](O)[C@@H](NC(C)=O)[C@H]([C@@H](O)[C@@H](O)CO)O3)[C@@H](O)[C@H](O[C@H]3[C@H](O)[C@@H](O)[C@@H](F)O[C@@H]3CO)O[C@@H]2CO)O[C@H](CO)[C@H](O)[C@@H]1O[C@@H]1O[C@H](CO)[C@H](O)[C@H](O)[C@H]1O
The series is described as follows: (§6) Activity of Rhodococcus sp. M777 Endoglycoceramidase 2 G370E mutant.

Substrate in series [12]: CCCCCCCCCCCCC/C=C/[C@@H](O)[C@@H](N)CO
The description is as §6.

Substrate in series [13]: CC(=O)N[C@H]1[C@H](O[C@@H]2[C@H](O[C@]3(C(=O)O)C[C@H](O)[C@@H](NC(C)=O)[C@H]([C@@H](O)[C@@H](O)CO)O3)[C@@H](O)[C@H](O[C@H]3[C@H](O)[C@@H](O)[C@@H](F)O[C@@H]3CO)O[C@@H]2CO)O[C@H](CO)[C@H](O)[C@@H]1O[C@@H]1O[C@H](CO)[C@H](O)[C@H](O)[C@H]1O
In words: (§7) Activity of Rhodococcus sp. M777 Endoglycoceramidase 2 D314Y mutant.

Substrate in series [14]: CCCCCCCCCCCCC/C=C/[C@@H](O)[C@@H](N)CO
The description is as §7.

Substrate in series [15]: CC(=O)N[C@H]1[C@H](O[C@@H]2[C@H](O[C@]3(C(=O)O)C[C@H](O)[C@@H](NC(C)=O)[C@H]([C@@H](O)[C@@H](O)CO)O3)[C@@H](O)[C@H](O[C@H]3[C@H](O)[C@@H](O)[C@@H](F)O[C@@H]3CO)O[C@@H]2CO)O[C@H](CO)[C@H](O)[C@@H]1O[C@@H]1O[C@H](CO)[C@H](O)[C@H](O)[C@H]1O
In words: (§8) Ratio of Kcat to Km of Activity of Rhodococcus sp. M777 Endoglycoceramidase 2 D314Y mutant.

Substrate in series [16]: CCCCCCCCCCCCC/C=C/[C@@H](O)[C@@H](N)CO
The description is as §8.

Substrate in series [17]: CC(=O)N[C@H]1[C@H](O[C@@H]2[C@H](O[C@]3(C(=O)O)C[C@H](O)[C@@H](NC(C)=O)[C@H]([C@@H](O)[C@@H](O)CO)O3)[C@@H](O)[C@H](O[C@H]3[C@H](O)[C@@H](O)[C@@H](F)O[C@@H]3CO)O[C@@H]2CO)O[C@H](CO)[C@H](O)[C@@H]1O[C@@H]1O[C@H](CO)[C@H](O)[C@H](O)[C@H]1O
In words: (§9) Activity of Rhodococcus sp. M777 Endoglycoceramidase 2 N334S mutant.

Substrate in series [18]: CCCCCCCCCCCCC/C=C/[C@@H](O)[C@@H](N)CO
Described as §9.

Substrate in series [19]: CC(=O)N[C@H]1[C@H](O[C@@H]2[C@H](O[C@]3(C(=O)O)C[C@H](O)[C@@H](NC(C)=O)[C@H]([C@@H](O)[C@@H](O)CO)O3)[C@@H](O)[C@H](O[C@H]3[C@H](O)[C@@H](O)[C@@H](F)O[C@@H]3CO)O[C@@H]2CO)O[C@H](CO)[C@H](O)[C@@H]1O[C@@H]1O[C@H](CO)[C@H](O)[C@H](O)[C@H]1O
The series is described as follows: (§10) Ratio of Kcat to Km of Activity of Rhodococcus sp. M777 Endoglycoceramidase 2 N334S mutant.

Substrate in series [20]: CCCCCCCCCCCCC/C=C/[C@@H](O)[C@@H](N)CO
Described as §10.

B1: Endoglycoceramidase II (Rhodococcus sp), A0ACD6B832 P394S (protein)
chain: MRRTRLVSLIVTGSLVFGGGVAAAQSSLAASGSGSGSGTALTPSYLKDDDGRSLILRGFNTASSAKSAPDGMPQFTEADLAREYADMGTNFVRFLISWRSVEPAPGVYDQQYLDRVEDRVGWYAERGYKVMLDMHQDVYSGAITPEGNSGNGAGAIGNGAPAWATYMDGLPVEPQPRWELYYIQPGVMRAFDNFWNTTGKHPELVEHYAKAWRAVADRFADNDAVVAYDLMNEPFGGSLQGPAFEAGPLAAMYQRTTDAIRQVDQDTWVCVAPQAIGVNQGLPSGLTKIDDPRAGQQRIAYCPHLYPLPLDIGDGHEGLARTLTDVTIDAWRANTAHTARVLGDVPIILGEFGLDTTLPGARDYIERVYGTAREMGAGVSYWSSDPGPWGPYLSDGTQTLLVDTLNKPYPRAVAGTPTEWSSTSDRLQLTIEPDAAITAPTEIYLPEAGFPGDVHVEGADVVGWDRQSRLLTVRTPADSGNVTVTVTPAA
With B1, the kcat/Km in [1] stood at 319 M⁻¹ s⁻¹; in series [2], 660 M⁻¹ s⁻¹. Moreover, the Km in series [3] was 690 µM; in series [4] it was 500 µM. Further, the results for the turnover number (kcat) in [3] and in series [4] were 0.22 s⁻¹ and 0.33 s⁻¹, respectively.

B2: Endoglycoceramidase II (Rhodococcus sp), A0ACD6B832 A81E (protein)
chain: B1 chain with A81E, S394P
Turning to B2, the Km in series [5] stood at 970 µM; in [6] it was 200 µM. Moreover, the kcat in series [5] and in series [6] was 0.12 s⁻¹ throughout. Further, the kcat/Km in series [7] is 123 M⁻¹ s⁻¹; in [8] it was 600 M⁻¹ s⁻¹.

B3: Endoglycoceramidase II (Rhodococcus sp), A0ACD6B832 G370E (protein)
chain: B1 chain with G370E, S394P
As to B3, the catalytic efficiency (kcat/Km) in [9] worked out at 247 M⁻¹ s⁻¹; in series [10], 418 M⁻¹ s⁻¹. Also, the figures for the Km in series [11] and in series [12] were 850 µM and 670 µM, respectively. For the same protein, the kcat in [11] was 0.21 s⁻¹; in series [12], 0.28 s⁻¹.

B4: Endoglycoceramidase II (Rhodococcus sp), A0ACD6B832 D314Y (protein)
chain: B1 chain with D314Y, S394P
For the protein B4, the results for the Km in series [13] and in [14] were 580 µM and 1600 µM, respectively. Moreover, the kcat came out at 0.49 s⁻¹ in series [13] and 0.7 s⁻¹ in series [14]. The results for the kcat/Km in [15] and in [16] were 845 M⁻¹ s⁻¹ and 443 M⁻¹ s⁻¹, respectively.

B5: Endoglycoceramidase II (Rhodococcus sp), A0ACD6B832 N334S (protein)
chain: B1 chain with N334S, S394P
B5: the values for the Km in [17] and in [18] were 700 µM and 680 µM, respectively. The kcat was 0.13 s⁻¹ in [17] and 0.19 s⁻¹ in [18]. For the same protein, the kcat/Km was found to be 186 M⁻¹ s⁻¹ in [19] and 279 M⁻¹ s⁻¹ in [20].
